Tests used:
Assay in all cases: EMSA; 0-300 ng protein titration; EMSA as in Chen (ref. 37), 10 ng probe and 200 ng protein (titration 0-300 ng), SYBR Gold stain; binding buffer, pH and temperature not stated; protein eluted in BS/THES (22 mM Tris-HCl pH 7.5, 4.4 mM EDTA, 8.9% sucrose, 62 mM NaCl, 10 mM HEPES, 5 mM CaCl2, 50 mM KCl, 12% glycerol) with 150 mM imidazole
Conditions in all cases: protein: recombinant; tags: His (pET28a); blunt
GmAHL1 = GmAHL1 (Glycine max, UniProt C6TMY6 1-268)
MtAHL1 = MtAHL1 (Medicago truncatula, UniProt G7JGG2 1-296)
MtAHL2 = MtAHL2 (Medicago truncatula, UniProt G7KSI4 1-269)

Measured: binding result

Sequence of MtAHL2 (G7KSI4 entry or part of it): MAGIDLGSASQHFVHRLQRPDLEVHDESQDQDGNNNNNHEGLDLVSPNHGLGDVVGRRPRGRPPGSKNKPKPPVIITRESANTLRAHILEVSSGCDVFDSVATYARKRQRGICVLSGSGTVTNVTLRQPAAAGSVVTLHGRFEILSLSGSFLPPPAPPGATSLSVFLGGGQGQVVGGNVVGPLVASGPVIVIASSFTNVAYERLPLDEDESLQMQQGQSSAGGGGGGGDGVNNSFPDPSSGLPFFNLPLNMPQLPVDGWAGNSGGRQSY
Sequence of GmAHL1 (C6TMY6 entry or part of it): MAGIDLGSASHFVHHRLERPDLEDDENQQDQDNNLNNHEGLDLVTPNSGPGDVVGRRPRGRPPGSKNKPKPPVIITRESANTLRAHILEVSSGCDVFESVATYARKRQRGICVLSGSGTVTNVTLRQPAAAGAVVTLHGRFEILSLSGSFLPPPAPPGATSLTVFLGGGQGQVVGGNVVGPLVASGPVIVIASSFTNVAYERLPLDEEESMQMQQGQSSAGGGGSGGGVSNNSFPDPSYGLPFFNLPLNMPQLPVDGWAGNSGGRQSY
Sequence of MtAHL1 (G7JGG2 entry or part of it): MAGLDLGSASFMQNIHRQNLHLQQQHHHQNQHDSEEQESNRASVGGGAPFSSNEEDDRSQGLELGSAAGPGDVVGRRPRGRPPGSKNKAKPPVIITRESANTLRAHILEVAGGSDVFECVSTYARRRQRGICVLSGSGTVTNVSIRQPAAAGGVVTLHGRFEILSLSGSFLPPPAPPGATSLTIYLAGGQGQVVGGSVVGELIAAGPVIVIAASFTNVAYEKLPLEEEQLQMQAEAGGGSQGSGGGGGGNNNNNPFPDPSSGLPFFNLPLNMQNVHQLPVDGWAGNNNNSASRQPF

B1: probe H0 (dsDNA)
DNA 1: TTAATAATTATTTTAATTTTCAAAAAGTATTAATTAC
DNA 2: GTAATTAATACTTTTTGAAAATTAAAATAATTATTAA
binds: all assays above

Reference: article PMC9946822, “Widely conserved AHL transcription factors are essential for NCR gene expression and nodule development in Medicago”
